This assay deals with T1, His-tagged human TROP-2 (TROP-2-His), SinoBiologics 10428-H08H (human, UniProt P09758 27-274).
T1 construct: Bought protein; also called TROP-2 His protein; human TROP-2 His antigen; not shown: His tag
T1 sequence: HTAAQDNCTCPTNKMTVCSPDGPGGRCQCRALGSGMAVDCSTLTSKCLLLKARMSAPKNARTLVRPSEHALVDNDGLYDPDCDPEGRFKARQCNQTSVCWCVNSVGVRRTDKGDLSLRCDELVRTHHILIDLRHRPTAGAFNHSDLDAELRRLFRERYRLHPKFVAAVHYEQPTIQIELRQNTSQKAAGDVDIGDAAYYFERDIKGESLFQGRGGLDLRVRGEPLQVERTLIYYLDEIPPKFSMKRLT
Description: indirect ELISA, coated TROP-2 His.

The term EC50 denotes the midpoint of the concentration-response curve.

B1: murine monoclonal antibody M1 (antibody, V domains shown)
VH: QVQLQQPGAELVRPGASVKLSCRASGYTFTNYWMNWVKQRPEQGLEWIGRIDPNDSETHYNQKFKDRAILTVDKASNTAYMQLSGLTSEDSAVHYCARSGFGSTYWFFDVWGAGTTVTVSS
VL: DIVMTQSHKFMSTSVGDRVSITCKASQDVSTAVAWYQQKPGQSPKLLIYSASYRYTGVPDRFAGSGYGTDFTFTISSVQTEDLTVYHCQQHYSTPLTFGPGTRLELK
notes: It is called a murine antibody, but the ELISA used a goat-anti-human secondary antibody
Molecule B1 showed an EC50 of 0.56 nM. This counts as sub-nanomolar.

Values taken from US20230374149A1 (SHANGHAI HANSOH BIOMEDICAL, published 2023).
